{"source": "the Human Domainome abundance scans (Beltran et al. 2025)", "parents": {"B1": {"name": "Transcriptional repressor p66-beta, residues 415 to 455; numbered along this chain, Q8WXI9 (parent)", "chain": "VEPFVCAQCRTDFTPHWKQEKNGKILCEQCMTSNQKKALKA"}}, "note": "± gives the uncertainty stated by the source."}
{"variants_of": "B1", "assay": "abundance fitness (aPCA) (normalised: wild type 0, dead -1); higher = more abundant; growth selection in yeast, the domain comes from the species named", "settings": "Homo sapiens"}
{"variant": "P3V", "abundance fitness": "-0.057 ± 0.074"}
{"variant": "P3A", "abundance fitness": "0.313 ± 0.087"}
{"variant": "P3L", "abundance fitness": "0.095 ± 0.085"}
{"variant": "P3T", "abundance fitness": "-0.066 ± 0.19"}
{"variant": "P3G", "abundance fitness": "0.22 ± 0.053"}
{"variant": "P3S", "abundance fitness": "0.398 ± 0.077"}
{"variant": "P3C", "abundance fitness": "0.488 ± 0.42"}
{"variant": "P3D", "abundance fitness": "-0.521 ± 0.27"}
{"variant": "P3R", "abundance fitness": "0.121 ± 0.062"}
{"variant": "P3H", "abundance fitness": "0.215 ± 0.11"}
{"variant": "P3W", "abundance fitness": "-0.243 ± 0.2"}
{"variant": "P3K", "abundance fitness": "-0.118 ± 0.16"}
{"variant": "P3E", "abundance fitness": "0.213 ± 0.098"}
{"variant": "P3I", "abundance fitness": "0.284 ± 0.49"}
{"variant": "C9D", "abundance fitness": "-0.271 ± 0.17"}
{"variant": "C9M", "abundance fitness": "-0.716 ± 0.3"}
{"variant": "C9R", "abundance fitness": "-0.436 ± 0.09"}
{"variant": "C9G", "abundance fitness": "-0.262 ± 0.062"}
{"variant": "C9E", "abundance fitness": "-0.235 ± 0.11"}
{"variant": "C9W", "abundance fitness": "-0.999 ± 0.17"}
{"variant": "C9K", "abundance fitness": "-0.148 ± 0.13"}
{"variant": "C9H", "abundance fitness": "0.389 ± 0.1"}
{"variant": "C9A", "abundance fitness": "-0.417 ± 0.079"}
{"variant": "C9N", "abundance fitness": "-0.717 ± 0.41"}
{"variant": "C9Y", "abundance fitness": "-0.937 ± 0.43"}
{"variant": "C9P", "abundance fitness": "-0.049 ± 0.15"}
{"variant": "C9T", "abundance fitness": "-0.203 ± 0.12"}
{"variant": "C9S", "abundance fitness": "-0.733 ± 0.27"}
{"variant": "C9Q", "abundance fitness": "-0.09 ± 0.097"}
{"variant": "C6R", "abundance fitness": "-1 ± 0.15"}
{"variant": "C6E", "abundance fitness": "-1.02 ± 0.21"}
{"variant": "C6D", "abundance fitness": "-0.718 ± 0.17"}
{"variant": "C6L", "abundance fitness": "-0.939 ± 0.24"}
{"variant": "C6V", "abundance fitness": "-1.08 ± 0.17"}
{"variant": "C6W", "abundance fitness": "-0.955 ± 0.2"}
{"variant": "C6K", "abundance fitness": "-0.368 ± 0.29"}
{"variant": "C6Y", "abundance fitness": "-0.23 ± 0.39"}
{"variant": "C6A", "abundance fitness": "-0.771 ± 0.19"}
{"variant": "C6N", "abundance fitness": "-0.317 ± 0.28"}
{"variant": "C6F", "abundance fitness": "-0.944 ± 0.43"}
{"variant": "C6S", "abundance fitness": "-0.911 ± 0.23"}
{"variant": "C6T", "abundance fitness": "0.403 ± 0.15"}
{"variant": "C6G", "abundance fitness": "-1.02 ± 0.14"}
{"variant": "C6M", "abundance fitness": "-1.12 ± 0.22"}
{"variant": "V5Q", "abundance fitness": "0.14 ± 0.084"}
{"variant": "V5L", "abundance fitness": "0.18 ± 0.068"}
{"variant": "V5K", "abundance fitness": "0.027 ± 0.11"}
{"variant": "V5R", "abundance fitness": "-0.027 ± 0.067"}
{"variant": "V5M", "abundance fitness": "-0.03 ± 0.17"}
{"variant": "V5A", "abundance fitness": "0.116 ± 0.095"}
{"variant": "V5C", "abundance fitness": "-0.351 ± 0.23"}
{"variant": "V5E", "abundance fitness": "-0.226 ± 0.089"}
{"variant": "V5F", "abundance fitness": "-0.288 ± 0.2"}
{"variant": "V5I", "abundance fitness": "-0.126 ± 0.13"}
{"variant": "V5T", "abundance fitness": "0.041 ± 0.1"}
{"variant": "V5G", "abundance fitness": "-0.302 ± 0.075"}
{"variant": "V5S", "abundance fitness": "0.136 ± 0.094"}
{"variant": "V5W", "abundance fitness": "-0.405 ± 0.13"}
{"variant": "V5D", "abundance fitness": "-0.568 ± 0.27"}
{"variant": "V5P", "abundance fitness": "-0.29 ± 0.12"}
{"variant": "A7H", "abundance fitness": "0.534 ± 0.28"}
{"variant": "A7T", "abundance fitness": "0.208 ± 0.07"}
{"variant": "A7P", "abundance fitness": "-0.091 ± 0.1"}
{"variant": "A7S", "abundance fitness": "0.523 ± 0.087"}
{"variant": "A7W", "abundance fitness": "-0.223 ± 0.083"}
{"variant": "A7F", "abundance fitness": "0.068 ± 0.11"}
{"variant": "A7R", "abundance fitness": "0.075 ± 0.064"}
{"variant": "A7E", "abundance fitness": "0.188 ± 0.063"}
{"variant": "A7C", "abundance fitness": "0.325 ± 0.089"}
{"variant": "A7M", "abundance fitness": "-0.165 ± 0.095"}
{"variant": "A7L", "abundance fitness": "-0.158 ± 0.061"}
{"variant": "A7I", "abundance fitness": "0.078 ± 0.11"}
{"variant": "A7D", "abundance fitness": "0.27 ± 0.096"}
{"variant": "A7K", "abundance fitness": "0.09 ± 0.11"}
{"variant": "A7Y", "abundance fitness": "-0.309 ± 0.12"}
{"variant": "A7G", "abundance fitness": "0.368 ± 0.053"}
{"variant": "A7V", "abundance fitness": "0.363 ± 0.054"}
{"variant": "A7N", "abundance fitness": "0.121 ± 0.13"}
{"variant": "F4A", "abundance fitness": "0.101 ± 0.065"}
{"variant": "F4T", "abundance fitness": "-0.126 ± 0.085"}
{"variant": "F4R", "abundance fitness": "-0.19 ± 0.062"}
{"variant": "F4H", "abundance fitness": "0.114 ± 0.32"}
{"variant": "F4K", "abundance fitness": "-0.137 ± 0.17"}
{"variant": "F4S", "abundance fitness": "-0.169 ± 0.073"}
{"variant": "F4E", "abundance fitness": "-0.134 ± 0.091"}
{"variant": "F4M", "abundance fitness": "0.64 ± 0.073"}
{"variant": "F4N", "abundance fitness": "0.34 ± 0.12"}
{"variant": "F4I", "abundance fitness": "0.125 ± 0.39"}
{"variant": "F4L", "abundance fitness": "0.036 ± 0.077"}
{"variant": "F4P", "abundance fitness": "-0.208 ± 0.18"}
{"variant": "F4G", "abundance fitness": "0.044 ± 0.052"}
{"variant": "F4C", "abundance fitness": "0.659 ± 0.067"}
{"variant": "F4Y", "abundance fitness": "-0.14 ± 0.33"}
{"variant": "F4D", "abundance fitness": "0.282 ± 0.077"}
{"variant": "E2S", "abundance fitness": "-0.074 ± 0.086"}
{"variant": "E2G", "abundance fitness": "-0.299 ± 0.092"}
{"variant": "E2V", "abundance fitness": "-0.227 ± 0.072"}
{"variant": "E2C", "abundance fitness": "-0.112 ± 0.16"}
{"variant": "E2D", "abundance fitness": "1.14 ± 0.48"}
{"variant": "E2L", "abundance fitness": "-0.469 ± 0.16"}
{"variant": "E2H", "abundance fitness": "0.197 ± 0.14"}
{"variant": "E2I", "abundance fitness": "-0.342 ± 0.37"}
{"variant": "E2W", "abundance fitness": "-0.651 ± 0.16"}
{"variant": "E2K", "abundance fitness": "-0.324 ± 0.11"}
{"variant": "E2R", "abundance fitness": "-0.55 ± 0.15"}
{"variant": "E2T", "abundance fitness": "0.056 ± 0.1"}
{"variant": "E2M", "abundance fitness": "-0.019 ± 0.1"}
{"variant": "E2F", "abundance fitness": "-0.1 ± 0.28"}
{"variant": "E2N", "abundance fitness": "0.866 ± 0.19"}
{"variant": "E2Y", "abundance fitness": "-0.114 ± 0.11"}
{"variant": "E2P", "abundance fitness": "-0.29 ± 0.16"}
{"variant": "E2A", "abundance fitness": "-0.352 ± 0.088"}
{"variant": "E2Q", "abundance fitness": "-0.297 ± 0.17"}
{"variant": "T11F", "abundance fitness": "-0.306 ± 0.23"}
{"variant": "T11P", "abundance fitness": "-0.025 ± 0.076"}
{"variant": "T11H", "abundance fitness": "0.346 ± 0.22"}
{"variant": "T11G", "abundance fitness": "0.354 ± 0.05"}
{"variant": "T11Q", "abundance fitness": "0.312 ± 0.069"}
{"variant": "T11E", "abundance fitness": "0.312 ± 0.064"}
{"variant": "T11K", "abundance fitness": "0.427 ± 0.099"}
{"variant": "T11L", "abundance fitness": "0.156 ± 0.086"}
{"variant": "T11M", "abundance fitness": "0.436 ± 0.08"}
{"variant": "T11D", "abundance fitness": "0.066 ± 0.44"}
{"variant": "T11C", "abundance fitness": "0.183 ± 0.11"}
{"variant": "Q8K", "abundance fitness": "0.788 ± 0.075"}
{"variant": "Q8A", "abundance fitness": "0.821 ± 0.065"}
{"variant": "Q8S", "abundance fitness": "0.839 ± 0.061"}
{"variant": "Q8C", "abundance fitness": "0.506 ± 0.095"}
{"variant": "Q8H", "abundance fitness": "0.58 ± 0.14"}
{"variant": "Q8G", "abundance fitness": "0.934 ± 0.048"}
{"variant": "Q8V", "abundance fitness": "0.896 ± 0.052"}
{"variant": "Q8L", "abundance fitness": "0.723 ± 0.06"}
{"variant": "Q8P", "abundance fitness": "-0.393 ± 0.12"}
{"variant": "Q8R", "abundance fitness": "0.843 ± 0.055"}
{"variant": "Q8Y", "abundance fitness": "0.428 ± 0.14"}
{"variant": "Q8E", "abundance fitness": "0.849 ± 0.06"}
{"variant": "Q8T", "abundance fitness": "0.864 ± 0.075"}
{"variant": "Q8N", "abundance fitness": "0.741 ± 0.14"}
{"variant": "Q8M", "abundance fitness": "0.657 ± 0.12"}
{"variant": "Q8W", "abundance fitness": "0.557 ± 0.057"}
{"variant": "R10E", "abundance fitness": "0.27 ± 0.13"}
{"variant": "R10Y", "abundance fitness": "0.518 ± 0.082"}
{"variant": "R10C", "abundance fitness": "0.957 ± 0.068"}
{"variant": "R10H", "abundance fitness": "1.1 ± 0.083"}
{"variant": "R10K", "abundance fitness": "0.409 ± 0.087"}
{"variant": "R10P", "abundance fitness": "0.352 ± 0.093"}
{"variant": "R10A", "abundance fitness": "0.904 ± 0.067"}
{"variant": "R10I", "abundance fitness": "0.521 ± 0.14"}
{"variant": "R10L", "abundance fitness": "0.585 ± 0.064"}
{"variant": "R10W", "abundance fitness": "0.338 ± 0.068"}
{"variant": "R10S", "abundance fitness": "0.717 ± 0.059"}
{"variant": "R10F", "abundance fitness": "0.608 ± 0.1"}
{"variant": "R10D", "abundance fitness": "0.014 ± 0.092"}
{"variant": "R10N", "abundance fitness": "-0.022 ± 0.22"}
{"variant": "R10V", "abundance fitness": "0.703 ± 0.058"}
{"variant": "V1T", "abundance fitness": "-0.187 ± 0.36"}
{"variant": "V1E", "abundance fitness": "0.067 ± 0.13"}
{"variant": "V1N", "abundance fitness": "-0.178 ± 0.3"}
{"variant": "V1A", "abundance fitness": "-0.29 ± 0.086"}
{"variant": "V1I", "abundance fitness": "-0.288 ± 0.24"}
{"variant": "V1F", "abundance fitness": "-0.17 ± 0.21"}
{"variant": "V1G", "abundance fitness": "0.024 ± 0.093"}
{"variant": "V1D", "abundance fitness": "-0.002 ± 0.12"}
{"variant": "V1M", "abundance fitness": "0.212 ± 0.13"}
{"variant": "V1K", "abundance fitness": "0.195 ± 0.21"}
{"variant": "V1S", "abundance fitness": "-0.444 ± 0.2"}
{"variant": "V1R", "abundance fitness": "-0.054 ± 0.12"}
